Results taken from US20230106247A1 (L AND L BIO CO LTD NINGBO CHINA, published 2023).
Substitutions are numbered along the chain they refer to.

Legend:
human Sirpα-V2-his = human Sirpα-V2-his (human); experiment: ELISA
Description: (§1) Different antigens (recombinant proteins) such as the human Sirpα-V1-hFc, Sirpα-V1-his, Sirpα-V2-his, Sirpβ-his, Sirpγ-his, monkey Sirpα-his (cynoSirpα-his) or NOD-mSirpα-his described in Example 1 were diluted with a PBS buffer at pH7.4 to concentrations of 1 μg/mL, 2 μg/mL or 5 μg/mL, added into a 96-well ELISA plate (Corning, CLS3590-100EA) at a volume of 50 μL/well, and placed in an incubator at 37° C. for 2 hours. After the liquid was discarded, the wells were added with a blocking solution of 5% skimmed milk (skimmed milk powder available from Bright Dairy) diluted with PBS at 230 μL/well, and incubated in an incubator at 37° C. for 3 hours, or placed overnight at 4° C. (for 16-18 hours) for blocking. The blocking solution was discarded, and the plate was washed with a PBST buffer (pH7.4 PBS containing 0.05% Tween-20) for 5 times, then added with 50 μL/well of the supernatant (containing a detection antibody) or 10 μg/mL of the starting 5-fold gradient dilution of the antibody to be tested, and incubated at 37° C. for 1 hour. […] The plated was washed with PBST for 5 times, then added with 50 μL/well of TMB chromogenic substrate (KPL, Cat #: 52-00-03), incubated at room temperature for 10-15 min, added with 50 μL/well of 1 M H₂SO₄ to stop the reaction, and read by a […] Go microplate reader (ThermoFisher, Cat #: 51119200) for the absorbance value at 450 nm, and then a clone with high binding activity was selected or a EC₅₀ value was calculated according to the OD value.

Cyno Sirpα L932 = biological target: T1, Cyno Sirpα L932 (cynomolgus); experiment: ELISA
T1 chain: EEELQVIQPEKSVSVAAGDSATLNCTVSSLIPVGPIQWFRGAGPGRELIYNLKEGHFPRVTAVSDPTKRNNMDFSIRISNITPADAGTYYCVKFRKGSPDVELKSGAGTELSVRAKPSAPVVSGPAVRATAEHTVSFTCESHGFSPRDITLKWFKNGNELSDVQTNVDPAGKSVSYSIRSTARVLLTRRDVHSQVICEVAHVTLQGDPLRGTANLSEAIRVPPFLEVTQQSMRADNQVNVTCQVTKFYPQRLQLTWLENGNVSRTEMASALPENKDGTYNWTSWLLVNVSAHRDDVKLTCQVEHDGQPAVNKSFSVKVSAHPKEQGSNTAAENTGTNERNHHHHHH
Description: as §1

human Sirpα-V1-his = biological target: T2, human Sirpα-V1-his (human, UniProt P78324 31-373); experiment: ELISA
T2 construct: range 31-373; Bought (Sino Biological 11612-H08H) or expressed in-house; also called hSirpα-V1; hSirpα-V1-his
Description: as §1

Cyno Sirpα L936 = biological target: T3, Cyno Sirpα L936 (cynomolgus); experiment: ELISA
T3 construct: also called RB3-3; Cyno Sirpα polymorphism 3 (L936)
T3 chain: T1 chain with S28T, N51H, L52Q, A62S, D65E, P66S, R77H, L103V, V163F, L185V
Description: as §1

Cyno Sirpα L937 = biological target: T4, Cyno Sirpα L937 (cynomolgus); experiment: ELISA
T4 construct: also called RB3-5; Cyno Sirpα polymorphism 4 (L937)
T4 chain: T1 chain with A62P
Description: as §1

Cyno Sirpα L938 = biological target: T5, Cyno Sirpα L938 (cynomolgus, limits assumed); experiment: ELISA
T5 construct: also called RB6-1; Cyno Sirpα polymorphism 5 (L938)
T5 chain: T1 chain with D19E, V27A, S28T, A42V, N51H, L52Q, A62P, V163F, L185V, T245M
Description: as §1

Cyno Sirpα L939 = biological target: T6, Cyno Sirpα L939 (cynomolgus, limits assumed); experiment: ELISA
T6 construct: also called RB6-2; Cyno Sirpα polymorphism 6 (L939)
T6 chain: T1 chain with D19E, V27A, S28T, A42V, N51S, L52Q, A62P, V163F, L185V
Description: as §1

Cyno Sirpα L933 = biological target: T7, Cyno Sirpα L933 (cynomolgus); experiment: ELISA
T7 construct: extracellular domain; also called Cyno Sirpα polymorphism 2 (L933)
Description: as §1

[1] = biological target: T8, human Sirpα-V1 on CHO-K1 cells (CHO-K1 hSirpα+ cell line) (human, UniProt P78324 31-504); experiment: cell ELISA on hSirpα-v1+ cell strain
T8 construct: whole, on cells; also called hSirpα-v1+ cell strain
Text: The readings on a microplate reader (MultiskanGO Thermo, Model 51119200) were subjected to data analysis by GraphPad prism 5.

Chain of human Sirpα-V2-his (human) (chain, as listed by the source): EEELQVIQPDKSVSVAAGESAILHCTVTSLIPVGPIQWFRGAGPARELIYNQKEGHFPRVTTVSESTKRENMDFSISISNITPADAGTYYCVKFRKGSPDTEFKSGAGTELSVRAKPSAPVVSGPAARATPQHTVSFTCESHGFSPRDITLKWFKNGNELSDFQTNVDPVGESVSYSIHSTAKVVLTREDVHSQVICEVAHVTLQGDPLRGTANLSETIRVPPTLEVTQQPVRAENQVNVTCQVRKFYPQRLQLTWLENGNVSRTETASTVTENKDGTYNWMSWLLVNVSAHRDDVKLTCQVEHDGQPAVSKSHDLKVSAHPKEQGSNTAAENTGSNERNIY

EC50 (human Sirpα-V2-his): 0.094 nM
EC50 (Cyno Sirpα L932): 0.181 nM
EC50 (human Sirpα-V1-his): 0.065 nM
EC50 (Cyno Sirpα L936): 0.143 nM
EC50 (Cyno Sirpα L937): 0.121 nM
EC50 (Cyno Sirpα L933): 0.159 nM
EC50 [1]: 0.124 nM
B1: humanized antibody mab14-h16 (antibody, human IgG4 S228P, kappa, V domains shown)
VH: QVQLVQSGAEVKKPGASVKVSCKASGYNFNIYWINWVRQAPGQGLEWIGNIYPSSISTNYNEKFKTRATLTVDKSTSTVYMELSSLRSEDTAVYYCARSEGTYYGGRYEGDWFGYWGQGTLVTVSS
VL: DIQMTQSPSSLSASVGDRVTITCRASQDIRNYLNWYQQKPGKAPKLLIYFTSTLHSGVPSRFSGSGSGTDFTLTISSLQPEDFATYYCQQGNTLPWTFGGGTKVEIKR
notes: hIgG4, κ
binding result (Cyno Sirpα L938): no binding (tested: the binding signal was not detected)
binding result (Cyno Sirpα L939): no binding (tested: the binding signal was not detected)
